Results published in patent US20240083959A1.

Target: T1, recombinant human LPHN2 lectin-olfactomedin-like-GAIN/GPS domain, residues F26-R796 (human), O95490
T1 chain: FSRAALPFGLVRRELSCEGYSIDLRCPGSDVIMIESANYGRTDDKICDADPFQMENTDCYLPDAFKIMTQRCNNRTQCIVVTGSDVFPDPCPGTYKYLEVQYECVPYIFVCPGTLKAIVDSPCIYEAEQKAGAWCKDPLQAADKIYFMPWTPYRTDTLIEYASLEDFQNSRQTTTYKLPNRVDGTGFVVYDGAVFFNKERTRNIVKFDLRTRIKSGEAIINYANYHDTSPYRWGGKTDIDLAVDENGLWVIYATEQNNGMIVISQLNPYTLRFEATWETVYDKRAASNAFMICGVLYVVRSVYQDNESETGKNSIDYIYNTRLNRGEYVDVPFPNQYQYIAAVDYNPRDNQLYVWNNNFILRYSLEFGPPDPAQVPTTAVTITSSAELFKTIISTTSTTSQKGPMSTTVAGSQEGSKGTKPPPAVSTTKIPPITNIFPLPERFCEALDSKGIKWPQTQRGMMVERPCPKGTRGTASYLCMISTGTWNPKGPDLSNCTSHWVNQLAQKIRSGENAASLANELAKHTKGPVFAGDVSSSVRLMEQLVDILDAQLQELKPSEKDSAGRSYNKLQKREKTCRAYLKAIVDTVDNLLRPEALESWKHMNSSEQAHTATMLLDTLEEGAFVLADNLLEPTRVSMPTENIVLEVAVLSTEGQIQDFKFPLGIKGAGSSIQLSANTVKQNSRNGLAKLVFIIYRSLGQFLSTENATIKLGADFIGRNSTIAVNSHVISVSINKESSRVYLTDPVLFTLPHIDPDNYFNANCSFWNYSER
Assay: solid-phase binding (ELISA)
Conditions: ligand; chains chain; N-linked glycans removed with PNGase F (sites N79, N186, N269, N325 on SEQ ID NO: 1); remark: other sources report otherwise

- Kd: 840 nM
B1: deglycosylated LRG1 (LRG1 treated with PNGase F), P02750 36-347 (protein)
chain: VTLSPKDCQVFRSDHGSSISCQPPAEIPGYLPADTVHLAVEFFNLTHLPANLLQGASKLQELHLSSNGLESLSPEFLRPVPQLRVLDLTRNALTGLPPGLFQASATLDTLVLKENQLEVLEVSWLHGLKALGHLDLSGNRLRKLPPGLLANFTLLRTLDLGENQLETLPPDLLRGPLQLERLHLEGNKLQVLGKDLLLPQPDLRYLFLNGNKLARVAAGAFQGLRQLDMLDLSNNSLASVPEGLWASLGQPNWDMRDGFDISGNPWICDQNLSDLYRWLQAQKDKMFSQNDTRCAGPEAVKGQTLLAVAKSQ
